# Data as given in patent publication US9879306B2, “Luciferase biosensors for cAMP” (PROMEGA CORPORATION, priority 2008, dated 2018).
# B1: 7A1: cAMP biosensor, RIIβB E284A and V316I, linker …; SEQ ID NO:113, 114 (protein)
# chain: MPGAVGKVVPFFEAKVVDLDTGKTLGVNQRGELCVRGPMIMSGYVNNPEATNALIDKDGWLHSGDIAYWDEDEHFFIVDRLKSLIKYKGYQVAPAELESILLQHPNIFDAGVAGLPDDDAGELPAAVVVLEHGKTMTEKEIVDYVASQVTTAKKLRGGVVFVDEVPKGLTGKLDARKIREILIKAKKGSSGGSGGSGGGMYESFIESLPFLKSLEFSERLKVVDVIGTKVYNDGEQIIAQGDSADSFFIVESGEVKITMKRKGKSEVEENGAVEIARCSRGQYFGELALVTNKPRAASAHAIGTVKCLAMDVQAFERLLGPCMEIMKRNIATYEEQLVALFGTNMDIVAKNIKKGPAPFYPLEDGTAGEQLHKAMKRYALVPGTIAFTDAHIEVDITYAEYFEMSVRLAEAMKRYGLNTNHRIVVCSENSLQFFMPVLGALFIGVAVAPANDIYNERELLNSMGISQPTVVFVSKKGLQKILNVQKKLPIIQKIIIMDSKTDYQGFQSMYTFVTSHLPPGFNEYDFVPESFDRDKTIALIMNSSGSTGLPKGVALPHRTACVRFSHARDPIFGNQIIPDTAILSVVPFHHGFGMFTTLGYLICGFRVVLMYRFEEELFLRSLQDYKIQSALLVPTLFSFFAKSTLIDKYDLSNLHEIASGGAPLSKEVGEAVAKRFHLPGIRQGYGLTETTSAILITPEGV
# notes: cAMP biosensor, RIIβB E284A and V316I, linker …
# Assays:
# Format in all cases: cell-based
# dopamine D2 receptor = target: T1, dopamine D2 receptor (Homo sapiens, UniProt P14416); assay: Forskolin, dopamine and haloperidol responses of biosensor clones in HEK293 cells stably expressing the dopamine D2 receptor
# T1 construct: expressed in transfected cells
# T1 sequence (P14416 whole entry, species assumed): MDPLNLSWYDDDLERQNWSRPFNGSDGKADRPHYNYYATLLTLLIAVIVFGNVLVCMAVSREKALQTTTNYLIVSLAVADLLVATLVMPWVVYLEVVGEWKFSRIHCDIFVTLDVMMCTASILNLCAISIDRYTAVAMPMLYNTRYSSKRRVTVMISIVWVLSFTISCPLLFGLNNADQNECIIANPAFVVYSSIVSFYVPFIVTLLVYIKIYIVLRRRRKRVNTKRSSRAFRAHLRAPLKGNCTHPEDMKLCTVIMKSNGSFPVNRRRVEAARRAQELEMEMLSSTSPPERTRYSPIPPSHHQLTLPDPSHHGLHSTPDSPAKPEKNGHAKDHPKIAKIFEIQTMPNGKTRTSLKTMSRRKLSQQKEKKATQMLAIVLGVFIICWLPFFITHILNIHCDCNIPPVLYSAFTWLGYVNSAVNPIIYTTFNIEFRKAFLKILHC
# Description: To measure changes in the intracellular concentration of cAMP, HEK293 cells are transiently transfected with mutant cAMP biosensors followed by treatment with compounds known to increase or decrease the intracellular cAMP concentration through GPCR activation of Gs- or Gi-coupled receptors, respectively.
# HEK293 cells stably expressing the dopamine D2 receptor were transiently transfected with the mutant cAMP biosensors from Example VIIB. Cells were also transfected with either 7A1 (Example III) or GS358 (parent biosensor) as controls. Cells were equilibrated for 2 hours at room temperature using 2 mM EF-luc. Antagonist assay wells were pre-treated for 10-15 minutes at room temperature with 10 μM Haloperidol (Halo). Next, the following reagents were added to their respective wells: media alone to “untreated” samples; 3 μM forskolin (FSK) to “forskolin-treated” samples; 3 μM FSK+0.3 μM dopamine to “agonist-treated” samples; and 3 μM FSK+0.3 μM dopamine to the aforementioned wells pre-treated with Halo. The cells were then incubated at room temperature for 10 minutes and luminescence was measured. Fold response for FSK was calculated by dividing the RLU from “forskolin-treated” cells by the RLU from the “untreated” cells. Fold response for dopamine treatment was calculated by dividing the RLU from the “agonist-treated” cells by the RLU from the “forskolin-treated” cells. Fold response for Haloperidol treatment was calculated by dividing the RLU from the cells treated with haloperidol then forskolin plus dopamine by the RLU of cells treated with forskolin plus dopamine alone.
# HEK293 cells [1] = assay: Luminescence and fold response of biosensor clones in HEK293 cells after isoproterenol or FSK
# Procedure: B. HEK293 cells were transiently transfected with plasmid DNAs encoding various biosensor mutants as above. These biosensor mutants contained the E284A and V316I mutation in the RIIbetaB cAMP binding domain and the modified linker sequence 7A1 (GSNWDSGCSREG; SEQ ID NO: 129). The clones also contained the additional mutations outlined in Table 5. Cells were equilibrated for 2 hours at room temperature with 2 mM EF-Luc. Luminescence was measured 5 and 15 minutes after addition of the isoproterenol and 15 minutes after addition of FSK. Fold response (response; Resp.) was calculated by dividing relative light units (RLUs) from induced cells by the RLUs from uninduced cells. As a control, the biosensor GS358 and 7A1 were included.
# HEK293 cells [2] = assay: Screening of linker variant cAMP biosensors in HEK293 cells with isoproterenol
# Description: The linker variants of Example III were inserted into a CP-FF construct as in Example II. The construct further comprised a mutant RIIβb cAMP binding site containing the substitutions at […] and […]. As in Example II, the constructs were first screened in E. coli to identify linker sequences which provided improved luminescence, improved response or both. The linker variants were then screened for improved luminescence signal, response to isoproterenol, or both in HEK293 cells. On day 1, 15,000 HEK293 cells were plated to the individual wells of a 96-well plate. On day 2, cells were transiently transfected with plasmid DNAs encoding a cAMP biosensor variant comprising a variant linker sequence using the LT1 reagent from Mirus Bio. […] Isoproterenol was added to 10 μM final concentration to the individual wells, and luminescence was monitored continuously in time (Mithras luminometer; 1 second integration time). Once measurements were complete (>30 minutes), cells were lysed, and Renilla luciferase activity was measured. Biosensor luminescence (FF RLU) was normalized using the Renilla luminescence signal (RL norm), and fold-induction (response) was calculated by dividing the normalized biosensor luminescence from isoproterenol-treated wells by the normalized luminescence from control wells that received no compound addition (Figure). […]
molecule,measurement,setting,value
B1,Dopamine Induced,"dopamine D2 receptor; 3 μM FSK + 0.3 μM dopamine, 10 minutes",1860 RLU
same,Forskolin (FSK) Induced,"dopamine D2 receptor; 3 μM FSK, 10 minutes",4709 RLU
same,Halo Induced,"dopamine D2 receptor; 10 μM Haloperidol pre-treatment, then 3 μM FSK + 0.3 μM dopamine",5429 RLU
same,Dopamine Response,dopamine D2 receptor; RLU agonist-treated / forskolin-treated,0.38 fold
same,Forskolin (FSK) Response,dopamine D2 receptor; RLU forskolin-treated / untreated,15 fold
same,Halo Response,dopamine D2 receptor; RLU haloperidol then FSK + dopamine / FSK + dopamine alone,2.9 fold
same,Forskolin (FSK) Uninduced,"dopamine D2 receptor; untreated (media alone), 10 minutes",307 RLU
same,Isoproterenol-5 minutes Induced,HEK293 cells [1]; 5 minutes after isoproterenol,73287 RLU
same,Forskolin (FSK) Induced,HEK293 cells [1]; 15 minutes after FSK,161755 RLU
same,Isoproterenol-15 minutes Induced,HEK293 cells [1]; 15 minutes after isoproterenol,173340 RLU
same,Isoproterenol-5 minutes Resp,"HEK293 cells [1]; RLU induced / RLU uninduced, 5 minutes after isoproterenol",60 fold
same,Forskolin (FSK) Resp,"HEK293 cells [1]; RLU induced / RLU uninduced, 15 minutes after FSK",47 fold
same,Isoproterenol-15 minutes Resp,"HEK293 cells [1]; RLU induced / RLU uninduced, 15 minutes after isoproterenol",51 fold
same,Isoproterenol-5 minutes Uninduced,"HEK293 cells [1]; uninduced cells, 5 minutes",1231 RLU
same,Forskolin (FSK) Uninduced,"HEK293 cells [1]; uninduced cells, 15 minutes",3415 RLU
same,Isoproterenol-15 minutes Uninduced,"HEK293 cells [1]; uninduced cells, 15 minutes",3415 RLU
same,Signal Improvement,"HEK293 cells [2]; fold improvement in luminescent signal over parental GS358 with E284A and V316I, HEK293, 10 μM isoproterenol",2.4 fold
same,Response Improvement,"HEK293 cells [2]; fold improvement in response to isoproterenol over parental GS358 with E284A and V316I, HEK293, 10 μM",1.4 fold
